Experiments:
[1] = biological target: the molecule itself; assay: AUC; sedimentation velocity, 150 mM NaCl, 20 mM sodium phosphate pH 7.8, 20 °C, 50,000 rpm; 10 and 34 μM loading, Kd fitted from the 34 μM experiment; monomer-dimer equilibrium (dimer to monomers)
[2] = biological target: the molecule itself; assay: crystal structure; selenomethionine labeled SAM1-SAM2, 0.6 mM in T300 buffer, hanging drop at 4 °C, 0.1 M Tris pH 7.5, 2.4 M sodium formate, 5 mM DTT; SAD, 2.75 Å; one tandem in the asymmetric unit
[3] = biological target: the molecule itself; assay: AUC; sedimentation velocity, 300 mM NaCl, 20 mM sodium phosphate pH 7.8, 20 °C, 50,000 rpm; 10 and 34 μM loading, Kd fitted from the 34 μM experiment; monomer-dimer equilibrium (dimer to monomers)

B1: human CASKIN2 SAM1-SAM2 tandem (483-634), wild type (domain or fragment)
chain: not shown
modifications: selenomethionine in the protein used for crystals; uniform 15N label in the NMR samples
notes: CASKIN2, human, tandem SAM domains SAM1-SAM2, residues 483-634 of Uniprot Q8WXE0; Cloned into BamHI/XhoI of pET28; the vector probably adds an N-terminal His tag with linker residues (surmise); also called CASKIN2 SAM tandem; wild type SAM tandem; source: E. coli BL21:DE3, purified (Nickel-NTA, gel filtration)
Q: Which Kd [1] does the source give for B1 here?
A: The Kd was 52.9 µM.

Q: And the “stoichiometry N” value [2]?
A: The value was 2.

Q: What about the Kd [3] of the same protein?
A: The Kd was 27.6 µM.

Reference: article PMC4994250, “A new mode of SAM domain mediated oligomerization observed in the CASKIN2 neuronal scaffolding protein” (Cell Communication and Signaling : CCS, 2016)
